The record followed here is patent US20260184814A1, “BROADLY NE[…] INFLUENZA NEURAMINIDASE” (priority 2022, published 2026).

Assay [1] deals with B/Brisbane/602008 or 33/2008 (Victoria) (Influenza B virus). Briefly: SPR (Biacore), NA on anti-Avi chip, 1:1 model; NA code BNA-6. (In general: In SPR one partner is held on a chip, and binding of the other changes the refractive index at the surface.)
Assay [2] deals with N9 Hong Kong/56/2015 (Influenza A virus). Briefly: SPR (Biacore), NA on anti-Avi chip, 1:1 model; NA code N9.
For assay [3], the target named is N2 A/Hong_Kong/2671/2019 (82-469) (Influenza A virus). Briefly: SPR (Biacore), NA on anti-Avi chip, 1:1 model; NA code NA-18 (+glyc245).
For assay [4], the target named is A/N1 Vietnam/1203/2004 (Influenza A virus). Briefly: SPR (Biacore), NA on anti-Avi chip, 1:1 model; NA code NA-3.
In assay [5] the target is B/Perth/211/2011 (Influenza B virus). Briefly: SPR (Biacore), NA on anti-Avi chip, 1:1 model; NA code BNA-2.
The target of assay [6] is N2 A/Switzerland/8060/2017 (82-469) (Influenza A virus). Briefly: SPR (Biacore), NA on anti-Avi chip, 1:1 model; NA code NA-16 (+glyc245).
Assay [7] addresses IBV neuraminidase from B/Malaysia/2506/2004 (Victoria) (Influenza B virus B/Malaysia/2506/2004). Briefly: SPR (Biacore), NA on anti-Avi chip, 1:1 model; NA code BNA-7.
In assay [8] the target is B/Massachusetts/02/2012(Yamagata) (Influenza B virus). Briefly: SPR (Biacore), NA on anti-Avi chip, 1:1 model; NA code BNA-3.
The target in assay [9] is N2 neuraminidase from A/South Australia/34/2019 (Influenza A virus A/South Australia/34/2019). Briefly: SPR (Biacore), NA on anti-Avi chip, 1:1 model; NA code NA-17, 82-469 (+glyc245).
Assay [10] has as its target N2 neuraminidase from H3N2 A/Tanzania/205/2010 (Influenza A virus A/Tanzania/205/2010 (H3N2)).
Assay [11] addresses N2 neuraminidase from A/South Australia/34/2019 (Influenza A virus A/South Australia/34/2019). Briefly: SPR, 1:1 binding; NA-17 "+glyc245".
Assay [12] deals with N2 A/Hong_Kong/2671/2019 (82-469) (Influenza A virus). Briefly: SPR; NA-18. The arrangement: unit not given beside the values.
Assay [13] deals with N2 neuraminidase from H3N2 A/Tanzania/205/2010 (Influenza A virus A/Tanzania/205/2010 (H3N2)). Briefly: SPR; NA-5. The arrangement: unit not given beside the values.
Assay [14] addresses N2 neuraminidase from A/South Australia/34/2019 (Influenza A virus A/South Australia/34/2019). Briefly: SPR; NA-17. The arrangement: unit not given beside the values.
Assay [15] has as its target N2 A/Hong_Kong/2671/2019 (82-469) (Influenza A virus). Briefly: SPR, 1:1 binding; NA-18 "+glyc245".
In assay [16] the target is N2 neuraminidase from H3N2 A/Tanzania/205/2010 (Influenza A virus A/Tanzania/205/2010 (H3N2)). Briefly: SPR, 1:1 binding; NA-5 "-glyc245".
For assay [17], the target named is N9 NA (FIGS. 96A-96C). Briefly: Bio-Layer Interferometry (BLI); printed as ka.
For assay [18], the target named is N9 NA (FIGS. 96A-96C). Briefly: Bio-Layer Interferometry (BLI); printed as kdis. Background: BLI is a label-free optical method that tracks binding on a fibre tip over time.
In assay [19] the target is N9 NA (FIGS. 96A-96C). Briefly: Bio-Layer Interferometry (BLI).

Numbering of substitutions follows the chain as printed.

B1: FNI9-v4.1 (antibody, V domains shown)
VH: QVHLVQSGAEVKEPGSSVTVSCKASGGSFSNQAISWVRQAPGQGLEWMGGIFPISGTPTSAQRFQGRVTFTADESTTTVYMDLSSLRSDDTAVYYCARAGSDYFNRDLGWENYYFASWGQGTLVTVSS
VL: EIVMTQSPATLSLSSGERATLSCRASRSVSSNLAWYQQKPGQAPRLLIYDASTRATGFSARFAGSGSGTEFTLTISSLQSEDSAIYYCQQYNNWPPWTFGQGTKVEIK
Take B1: the fold-change in affinity compared to FNI9-v1.1 came out at 0.78 in [1]; 1.31 in assay [2]; 1.85 in assay [3]; 1.06 in [4]; 1.48 in [5]; 1.06 in assay [6]. The fold-change in affinity compared to FNI9-v1.1 in [7] worked out at 1.44; in assay [8], 1.24; in assay [9], 1.3; in assay [10], 1.76.

B2: Fab FNI9-v8.1 (Fab, V domains shown)
VH: B1 VH with S28T, S30N
VL: B1 VL
For the molecule B2, the figures for the Kd in assay [11], in [15] and in [16] were 99.5 nM, 8.64 nM and 2.57 nM, respectively. Further, the results for the KD compared to v1.1 in assay [12], in [13] and in [14] were 0.83, 0.78 and 0.78, respectively.

B3: FNI9-v9.1 (antibody, V domains shown)
VH: B1 VH with S30N, P58A, F70I
VL: B1 VL
On to B3, for which the on-rate (kon) with N9 NA (FIGS. 96A-96C) [17] was 456000 M⁻¹ s⁻¹. Further, the fold-change in affinity compared to FNI9-v1.1 in [1] was found to be 0.81; in [2], 8.43; in assay [3] it was 1.15; in [4], 0.93; in assay [5] it was 1.59; in assay [6], 0.93. In addition, the fold-change in affinity compared to FNI9-v1.1 in [7] was 1.53; in assay [8], 0.92; in assay [9], 2.99; in [10], 0.81. Moreover, the koff with N9 NA (FIGS. 96A-96C) [18] amounted to 8.66e-05 s⁻¹. Besides, in the assay with N9 NA (FIGS. 96A-96C) [19], the Kd was 0.19 nM.

B4: Fab FNI9-v4.1 (Fab, V domains shown)
VH: B1 VH
VL: B1 VL
As for B4, the values for the Kd in assay [11], in assay [15] and in assay [16] were 133 nM, 19.9 nM and 5.35 nM, respectively. The KD compared to v1.1 stood at 1.91 in assay [12], 1.63 in assay [13] and 1.04 in assay [14].

B5: FNI9-v8.1 (antibody, V domains shown)
VH: B1 VH with S28T, S30N
VL: B1 VL
Regarding B5, the kon with N9 NA (FIGS. 96A-96C) [17] stood at 463000 M⁻¹ s⁻¹. Also, the fold-change in affinity compared to FNI9-v1.1 is 0.92 in assay [1]; 1.1 in assay [2]; 0.4 in assay [3]; 1.98 in [4]; 1.03 in [5]; 0.98 in [6]. Also, the fold-change in affinity compared to FNI9-v1.1 in [7] was 1.35; in assay [8], 1.17; in [9] it was 1.2; in assay [10] it was 0.98. Besides, the koff with N9 NA (FIGS. 96A-96C) [18] was < 1e-07 s⁻¹. The Kd with N9 NA (FIGS. 96A-96C) [19] is < 0.001 nM.

The term Kd denotes the concentration at which binding is half-saturated. Usually kon stands for the second-order rate constant of association. For orientation: koff means the first-order rate constant of dissociation.
